Drawing on publication PMC314469, “Protein Interaction Networks by Proteome Peptide Scanning” (PLoS Biology, 2004), this text covers normalised SPOT signal, Boehringer light units (BLU); mean over the file's lines of this peptide for 38 molecules.

For assay [1], the target named is T1, amphyphisin SH3 (AMPH_HUMAN), P49418.
T1 chain: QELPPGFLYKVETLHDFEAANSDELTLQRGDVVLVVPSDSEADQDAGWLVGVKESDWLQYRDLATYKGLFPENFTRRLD
Nature of the assay: SPOT array.

Assay [2] has as its target endophilin SH3 (SH3G2_HUMAN), Q99962. Put plainly: SPOT array.

B1: Q14324 1104-1117 (peptide)
chain: LTLNIRRPSPFDAG
On to B1, for which the normalised SPOT signal, Boehringer light units (BLU); mean over the file's lines of this peptide in assay [1] was found to be 8.1; in assay [2] it was 159.

B2: Q96NX2 418-431 (peptide)
chain: LTVAIRRPPDLGGP
For B2, the normalised SPOT signal, Boehringer light units (BLU); mean over the file's lines of this peptide in assay [1] was 23.5; in assay [2], 17.9.

B3: P09172 129-142 (peptide)
chain: LTLLFKRPFGTSDP
B3: the normalised SPOT signal, Boehringer light units (BLU); mean over the file's lines of this peptide in assay [1] came out at 41; in assay [2], 44.1.

B4: Q9Y2K7 133-146 (peptide)
chain: LTVTLQRPTKELHG
As for B4, the figures for the normalised SPOT signal, Boehringer light units (BLU); mean over the file's lines of this peptide in assay [1] and in assay [2] were 94.9 and 192, respectively.

B5: Q9P2W0 105-118 (peptide)
chain: LSSPLRRPWDQAQH
In the case of B5, the normalised SPOT signal, Boehringer light units (BLU); mean over the file's lines of this peptide in assay [1] came to 100; in assay [2] it was 280.

B6: Q9NS62 435-448 (peptide)
chain: LWRRFGRPAKSSTP
With B6, the values for the normalised SPOT signal, Boehringer light units (BLU); mean over the file's lines of this peptide in assay [1] and in assay [2] were 105 and 114, respectively.

B7: Q03112 565-579 (peptide)
chain: LTPVPSKPPVTPAT
For B7, the normalised SPOT signal, Boehringer light units (BLU); mean over the file's lines of this peptide worked out at 55.4 in assay [1] and 37 in assay [2].

B8: Q9C0B5 292-305 (peptide)
chain: APRYLGRPKKEKTI
For B8, the normalised SPOT signal, Boehringer light units (BLU); mean over the file's lines of this peptide in assay [1] amounted to 7.1; in assay [2] it was 69.5.

B9: Q9Y2W3 70-83 (peptide)
chain: LVSIPERPLRPPSE
Turning to B9, the normalised SPOT signal, Boehringer light units (BLU); mean over the file's lines of this peptide in assay [1] is 3540; in assay [2] it was 310.

B10: Q9H4M9 114-127 (peptide)
chain: LVVDPRRPFRKLNA
For B10, the figures for the normalised SPOT signal, Boehringer light units (BLU); mean over the file's lines of this peptide in assay [1] and in assay [2] were 2940 and 179, respectively.

B11: Q9H3C0 95-109 (peptide)
chain: LVIRPPRPPKVLRL
Take B11: the normalised SPOT signal, Boehringer light units (BLU); mean over the file's lines of this peptide in assay [1] stood at 14800; in assay [2], 19500.

B12: Q06889 251-264 (peptide)
chain: LTLKPIRPRKYPNR
Turning to B12, the normalised SPOT signal, Boehringer light units (BLU); mean over the file's lines of this peptide in assay [1] came out at 482; in assay [2], 102.

B13: Q9Y2E4 57-70 (peptide)
chain: LVNTLKRPKRPPLR
Take B13: the normalised SPOT signal, Boehringer light units (BLU); mean over the file's lines of this peptide is 408 in assay [1] and 48 in assay [2].

B14: Q01113 359-372 (peptide)
chain: LTSGPARPWKSVAL
For B14, the normalised SPOT signal, Boehringer light units (BLU); mean over the file's lines of this peptide amounted to 142 in assay [1] and 428 in assay [2].

B15: Q9NVH6 359-372 (peptide)
chain: LTIELRRPENEFWV
For the molecule B15, the normalised SPOT signal, Boehringer light units (BLU); mean over the file's lines of this peptide in assay [1] is 60; in assay [2], 52.4.

B16: Q9BZJ7 289-302 (peptide)
chain: LYGLLQRPVRLALG
For the molecule B16, the normalised SPOT signal, Boehringer light units (BLU); mean over the file's lines of this peptide amounted to 1270 in assay [1] and 1110 in assay [2].

B17: Q14185 317-330 (peptide)
chain: LTSGLRRPFGVAVM
As for B17, the results for the normalised SPOT signal, Boehringer light units (BLU); mean over the file's lines of this peptide in assay [1] and in assay [2] were 35.6 and 43, respectively.

B18: Q9HC66 56-69 (peptide)
chain: LVIRLPRPPKVLRL
As for B18, the normalised SPOT signal, Boehringer light units (BLU); mean over the file's lines of this peptide is 1960 in assay [1] and 2110 in assay [2].

B19: Q04637 602-615 (peptide)
chain: LTSFLRRPFQSPTS
Turning to B19, the results for the normalised SPOT signal, Boehringer light units (BLU); mean over the file's lines of this peptide in assay [1] and in assay [2] were 70.3 and 1560, respectively.

B20: Q96QG0 341-354 (peptide)
chain: APRRPRRPRRPGPS
Take B20: the normalised SPOT signal, Boehringer light units (BLU); mean over the file's lines of this peptide stood at 2420 in assay [1] and 1500 in assay [2].

B21: Q13972 262-275 (peptide)
chain: LVNNFLRPLRMAAS
As to B21, the results for the normalised SPOT signal, Boehringer light units (BLU); mean over the file's lines of this peptide in assay [1] and in assay [2] were 12100 and 1250, respectively.

B22: Q16827 346-360 (peptide)
chain: LTWLPPKPPTAFDG
With B22, the normalised SPOT signal, Boehringer light units (BLU); mean over the file's lines of this peptide was determined as 24 in assay [1] and 71.7 in assay [2].

B23: Q9Y2E4 454-467 (peptide)
chain: LTVAIRRPTDDSNQ
As for B23, the figures for the normalised SPOT signal, Boehringer light units (BLU); mean over the file's lines of this peptide in assay [1] and in assay [2] were 29.3 and 158, respectively.

B24: Q96Q82 70-83 (peptide)
chain: LVSRLRRPVSEVSG
For B24, the normalised SPOT signal, Boehringer light units (BLU); mean over the file's lines of this peptide turned out to be 112 in assay [1] and 96.8 in assay [2].

B25: Q96EY9 124-138 (peptide)
chain: LVPVPARPPLTRGQ
With B25, the normalised SPOT signal, Boehringer light units (BLU); mean over the file's lines of this peptide in assay [1] is 2950; in assay [2], 3430.

B26: Q9H8Y6 68-81 (peptide)
chain: LVIRLRRPPLRSPR
Consider B26, for which the normalised SPOT signal, Boehringer light units (BLU); mean over the file's lines of this peptide in assay [1] was 90.6; in assay [2], 12900.

B27: Q9H6B9 44-57 (peptide)
chain: LTHVLSRPRRGSSG
With B27, the results for the normalised SPOT signal, Boehringer light units (BLU); mean over the file's lines of this peptide in assay [1] and in assay [2] were 2960 and 170, respectively.

B28: Q08493 32-45 (peptide)
chain: LWRQPRRPIRIQQR
As for B28, the results for the normalised SPOT signal, Boehringer light units (BLU); mean over the file's lines of this peptide in assay [1] and in assay [2] were 3170 and 1000, respectively.

B29: Q9UM54 753-766 (peptide)
chain: LTKVFFRPGKFAEF
Take B29: the results for the normalised SPOT signal, Boehringer light units (BLU); mean over the file's lines of this peptide in assay [1] and in assay [2] were 132 and 199, respectively.

B30: Q13635 1311-1324 (peptide)
chain: LWPPLYRPRRDAFE
Consider B30, for which the normalised SPOT signal, Boehringer light units (BLU); mean over the file's lines of this peptide was 1260 in assay [1] and 3920 in assay [2].

B31: Q9HAJ1 68-81 (peptide)
chain: LVIRLRRPPLRYPR
Take B31: the normalised SPOT signal, Boehringer light units (BLU); mean over the file's lines of this peptide in assay [1] is 387; in assay [2], 6210.

B32: P39189 565-579 (peptide)
chain: LVIRPPRPPKVLGL
Regarding B32, the normalised SPOT signal, Boehringer light units (BLU); mean over the file's lines of this peptide was determined as 12400 in assay [1] and 20800 in assay [2].

B33: Q9NXU2 68-81 (peptide)
chain: AQARLKRPLKSLDG
On to B33, for which the normalised SPOT signal, Boehringer light units (BLU); mean over the file's lines of this peptide in assay [1] was found to be 117; in assay [2], 109.

B34: P11230 356-369 (peptide)
chain: LYLRLKRPKPERDL
With B34, the normalised SPOT signal, Boehringer light units (BLU); mean over the file's lines of this peptide came out at 42.9 in assay [1] and 70.6 in assay [2].

B35: Q9UK56 265-278 (peptide)
chain: LVNGFLRPLRMAAS
As for B35, the normalised SPOT signal, Boehringer light units (BLU); mean over the file's lines of this peptide is 4910 in assay [1] and 176 in assay [2].

B36: O15450 763-776 (peptide)
chain: APVPLLRPHRPSGP
For B36, the results for the normalised SPOT signal, Boehringer light units (BLU); mean over the file's lines of this peptide in assay [1] and in assay [2] were 1350 and 704, respectively.

B37: Q9NU18 93-107 (peptide)
chain: LYRFPGKPPTYVTD
Regarding B37, the normalised SPOT signal, Boehringer light units (BLU); mean over the file's lines of this peptide came out at 39 in assay [1] and 157 in assay [2].

B38: Q14997 962-975 (peptide)
chain: LVLEFLRPDRQGVT
On to B38, for which the normalised SPOT signal, Boehringer light units (BLU); mean over the file's lines of this peptide is 732 in assay [1] and 49.7 in assay [2].
